{"source": "patent US20120207673A1", "about": "(GARVAN INSTITUTE OF MEDICAL RESEARCH, published 2012)", "target": "T1, protein A (UniProt P38507 37-477)", "T1 construct": "also called Protein A superantigen", "assay": "phage ELISA on coated protein A; signal after 80 C 10 min then 4 C 10 min as % of the untreated sample (heat/cool assay)", "data": [{"binder": "HEL4 VH (other) VH: QVQLLESGGGLVQPGGSLRLSCAASGFRISDEDMGWVRQAPGKGLEWVSSIYGPSGSTYYADSVKGRFTISRDNSKNTLYLQMNSLRAEDTAVYYCASALEPLSEPLGFWGQGTLVTVSS", "values": [{"measurement": "Retained binding to protein A", "result": 88, "unit": "%"}]}]}
